Patent US20140179896A1 (published 2014)

Key:
[1] = target: T1, mouse vascular endothelial growth factor receptor-2 Fc chimera (Flk-1-Fc) (mouse, UniProt P35918 20-762); assay: binding to 1 nM Flk-1-Fc, % of input; radioactive equilibrium binding (assay not given)
T1 construct: Purchased from R&D Systems; also called mouse VEGF-R2; not shown: Fc part of the purchased chimera
Outline: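 Receptor-Fc fusions titrated from 0 to 200 nM against a fixed 0.2 or 0.5 nM of ³⁵S-labeled scaffold protein for 1 h at 30° C. Protein A bead pull-down followed by scintillation counting of eluate versus reaction mixture. Specific binding is total minus no-receptor binding, fitted to a one-site nonlinear equation.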
T1 sequence (P35918 20-762, change not shown): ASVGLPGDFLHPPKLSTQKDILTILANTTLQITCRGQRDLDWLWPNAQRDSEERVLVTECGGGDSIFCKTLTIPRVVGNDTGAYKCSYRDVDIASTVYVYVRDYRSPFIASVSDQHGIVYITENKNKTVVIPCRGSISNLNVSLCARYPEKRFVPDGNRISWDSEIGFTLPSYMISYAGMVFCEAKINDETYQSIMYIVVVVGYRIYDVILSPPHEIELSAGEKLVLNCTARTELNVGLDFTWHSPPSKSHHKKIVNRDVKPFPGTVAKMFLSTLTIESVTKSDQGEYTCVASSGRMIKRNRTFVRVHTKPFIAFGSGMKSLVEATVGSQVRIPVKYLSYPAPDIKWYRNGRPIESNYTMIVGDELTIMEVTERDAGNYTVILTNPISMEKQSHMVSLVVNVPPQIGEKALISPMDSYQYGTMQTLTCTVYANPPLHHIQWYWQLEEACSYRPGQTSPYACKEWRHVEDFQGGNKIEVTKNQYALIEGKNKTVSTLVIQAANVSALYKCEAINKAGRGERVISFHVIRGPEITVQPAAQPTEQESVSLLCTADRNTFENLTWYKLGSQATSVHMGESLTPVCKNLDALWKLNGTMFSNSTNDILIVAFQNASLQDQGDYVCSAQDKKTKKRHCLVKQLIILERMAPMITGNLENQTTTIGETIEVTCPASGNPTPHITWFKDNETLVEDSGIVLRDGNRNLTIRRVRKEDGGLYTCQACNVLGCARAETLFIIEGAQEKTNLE

[2] = target: full-length human KDR on cells (human, UniProt P35968 20-1356); assay: cell-based or functional assay
[3] = target: T1, mouse vascular endothelial growth …; assay: radioactive equilibrium binding (assay not given)
Method: (§1) To prepare ³⁵S-labeled binding proteins for analysis, mRNA was prepared as described above for RNA-protein fusion production but the linker ligation step was omitted. The mRNA was expressed using rabbit reticulocyte lysate translation kit (Ambion) in the presence of ³⁵S-labeled Met at 30° C. for 1 hour. Expressed protein was purified on M2-agarose Flag beads (Sigma) as described above. This procedure produced the encoded protein without the nucleic acid tail. In a direct binding assay, VEGF-R2-Fc fusions in concentrations ranging from 0 to 200 nM were added to a constant concentration of the purified protein (0.2 or 0.5 nM) and incubated at 30° C. for 1 hour in buffer B. The receptor-binder complexes were captured using Protein A magnetic beads for another 10 minutes at room temperature using a Kingfisher™ The beads were washed with six reaction volumes of buffer B. The protein was eluted from the beads with 100 μL of 0.1 M KOH. […] of the reaction mixture and elution were dried onto a LumaPlate-96 (Packard) and the amount of ³⁵S on the plate was measured using a TopCount NXT instrument (Packard). The amount of fibronectin-based scaffold protein bound to the target was estimated as a percent of radioactivity eluted from Protein A magnetic beads compare to radioactivity in the reaction mixture. Nonspecific binding of fibronectin-based scaffold proteins to the beads was determined by measuring binding in the absence of KDR-Fc and represented less than 1-2% of the input. Specific binding was obtained through subtraction of nonspecific binding from total binding. Data was analyzed using the GraphPad Prizm software (GraphPad Software, Inc, San Diego, Calif.), fitted using a one site, non-linear binding equation.

[4] = target: T2, human vascular endothelial growth factor receptor-2 Fc chimera (KDR-Fc) (human, UniProt P35968 20-764); assay: radioactive equilibrium binding (assay not given)
T2 construct: range 1-764; also called human VEGFR-2; hKDR; not shown: human IgG1 Fc
Method: as §1

[5] = target: T2, human vascular endothelial growth …; assay: binding to 1 nM KDR-Fc, % of input; radioactive equilibrium binding (assay not given)
Outline: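 ³⁵S-Met-labeled binder protein, made by reticulocyte-lysate translation and Flag-purified, held at 0.2 or 0.5 nM with receptor-Fc (0–200 nM) for 1 h at 30° C in buffer B. Complexes captured on Protein A beads, washed, KOH-eluted. Bound signal given as % of input radioactivity minus bead-only background; one-site fit.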

[6] = target: T3, full-length human KDR on cells (human, UniProt P35968 20-1356); assay: flow cytometry on CHO KDR cells
T3 construct: whole, on cells; also used here as the target for the HUVEC rows (natural human endothelial cells); also called CHO KDR; CHO-KDR
Method: (§2) The functionality of KDR and Flk-1 binding molecules in a cell culture model system was evaluated with E. coli produced binding molecules.
(§3) Binding of fibronectin-based scaffold protein to cell-surface KDR and Flk-1 was analyzed simultaneously on VEGF-R2-expressing and control cells by flow cytometry. CHO-pcDNA3 cells (control) were released from their dishes with trypsin-EDTA, washed in Dulbecco's PBS without calcium and magnesium (D-PBS⁻; Invitrogen), and stained for 30 minutes at 37° C. with 1.5 μM CMTMR (5-(and -6)-(((4-chloromethyl)benzoyl)amino)-tetramethylrhodamine) (Molecular Probes). The cells were washed in D-PBS⁻ and incubated for a further 30 minutes at 37° C., and then resuspended in blocking buffer (D-PBS⁻/10% fetal bovine serum) on ice. CHO-KDR or CHO-Flk cells were treated identically except that CMTMR was omitted. 75,000 of CMTMR-stained CHO-pcDNA3 cells were mixed with an equal number of unstained CHO-KDR or CHO-Flk cells in each well of a V-bottom 96-well plate. All antibodies and fibronectin-based scaffold proteins were diluted in 25 μl/well of blocking buffer, and each treatment was conducted for 1 hour at 4° C. Cell mixtures were stained with His₆-tagged (SEQ ID NO: 235) fibronectin-based scaffold proteins, washed twice with cold D-PBS⁻, and then treated with 2.5 μg/ml anti-His₆ (SEQ ID NO: 235) MAb (R&D Systems), washed, and stained with 4 μg/ml Alexa Fluor 488-conjugated anti-mouse antibody (Molecular Probes). For cells treated with an anti-KDR mouse monoclonal antibody (Accurate Chemical, Westbury, N.Y.) or an anti-flk-1 goat polyclonal antibody (R&D Systems), the anti-His₆ (SEQ ID NO: 235) step was omitted, and antibody binding was detected with the species-appropriate Alexa Fluor 488 conjugated secondary antibody (Molecular Probes). Following staining, cells were resuspended in 200 μl/well D-PBS⁻/1% FBS/1 μg/ml 7-aminoactinomycin D (7-AAD; Molecular Probes) and analyzed by flow cytometry on a FACSCalibur (Becton Dickinson, San Jose, Calif.) equipped with a […].

[7] = target: T4, murine VEGFR-2/EpoR chimera (flk-1/EpoR fusion, pmKE2) on cells (mouse; human, UniProt P35918 20-762; P19235 251-508, limits assumed); assay: cell-based or functional assay
T4 sequence (P35918 other isoform, or with tags, fused parts or gaps mutant limits assumed, form in doubt): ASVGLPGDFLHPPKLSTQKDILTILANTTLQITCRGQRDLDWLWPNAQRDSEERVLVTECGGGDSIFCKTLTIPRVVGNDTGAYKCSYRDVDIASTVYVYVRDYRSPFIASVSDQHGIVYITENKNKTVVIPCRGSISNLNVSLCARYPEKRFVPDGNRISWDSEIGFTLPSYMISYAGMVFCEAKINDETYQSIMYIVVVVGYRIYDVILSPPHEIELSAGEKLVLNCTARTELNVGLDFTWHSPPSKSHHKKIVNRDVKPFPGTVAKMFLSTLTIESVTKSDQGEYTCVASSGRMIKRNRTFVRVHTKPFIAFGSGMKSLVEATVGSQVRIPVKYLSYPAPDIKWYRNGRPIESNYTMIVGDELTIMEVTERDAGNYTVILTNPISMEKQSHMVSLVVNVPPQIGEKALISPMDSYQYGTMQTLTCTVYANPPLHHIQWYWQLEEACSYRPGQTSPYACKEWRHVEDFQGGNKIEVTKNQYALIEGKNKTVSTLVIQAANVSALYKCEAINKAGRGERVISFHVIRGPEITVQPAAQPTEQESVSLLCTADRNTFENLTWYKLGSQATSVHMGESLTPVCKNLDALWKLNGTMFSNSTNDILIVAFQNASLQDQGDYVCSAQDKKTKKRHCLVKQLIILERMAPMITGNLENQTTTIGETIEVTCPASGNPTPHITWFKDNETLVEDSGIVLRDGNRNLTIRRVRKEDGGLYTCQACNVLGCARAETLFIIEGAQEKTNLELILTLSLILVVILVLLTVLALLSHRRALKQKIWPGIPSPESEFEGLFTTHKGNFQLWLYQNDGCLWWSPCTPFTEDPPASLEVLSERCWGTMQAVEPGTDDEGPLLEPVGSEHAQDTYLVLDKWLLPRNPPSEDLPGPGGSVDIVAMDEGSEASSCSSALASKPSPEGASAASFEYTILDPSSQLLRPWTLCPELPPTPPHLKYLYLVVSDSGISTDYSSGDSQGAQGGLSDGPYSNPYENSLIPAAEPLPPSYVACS

[8] = target: human KDR/EpoR fusion (phKE8) on Ba/F3 cells (human, UniProt P35968 20-764; P19235 251-508, limits assumed); assay: cell-based or functional assay
[9] = target: T4, murine VEGFR-2/EpoR chimera (flk-1/EpoR …); assay: flow cytometry on CHO Flk-1 cells
Method: as §2, §3

[10] = target: T5, mouse vascular endothelial growth factor receptor-2 Fc chimera (Flk-1-Fc) (mouse, UniProt P35918 20-762); assay: radioactive equilibrium binding assay
T5 construct: purchased from R&D Systems; also called mouse VEGF-R2-Fc; not shown: Fc part of the purchased chimera
Method: as §1
T5 sequence (P35918 20-762, change not shown): as the sequence (P35918 20-762, change not shown) above

[11] = target: T6, human vascular endothelial growth factor receptor-2 Fc chimera (KDR-Fc) (human, UniProt P35968 20-764); assay: radioactive equilibrium binding assay
T6 construct: range 1-764; purchased from R&D Systems; also called hKDR; human VEGF-R2-Fc; not shown: human IgG1 Fc
Method: as §1

[12] = target: T3, full-length human KDR on cells; assay: cell-based or functional assay; remark: listed apart in the source
[13] = target: T5, mouse vascular endothelial growth …; assay: BIAcore, target-Fc immobilized
Method: (§4) The binding kinetics of fibronectin-based scaffold proteins binding proteins to the target was measured using BIAcore 2000 biosensor (Pharmacia Biosensor). Human and mouse VEGF-R2-Fc fusions were immobilized onto a CM5 sensor chip and soluble binding proteins were injected at concentrations ranging from 0 to 100 nM in buffer 0 (10 mM HEPES, 150 mM NaCl, 0.005% Tween 20, pH 7.4). Sensorgrams were obtained at each concentration and were evaluated using a program, BIA Evaluation 2.0 (BIAcore), to determine the rate constants kₐ (kₒₙ) and kd (koff.) The affinity constant, KD was calculated from the ratio of rate constants […].

[14] = target: T6, human vascular endothelial growth …; assay: BIAcore, target-Fc immobilized
Method: as §4

[15] = target: T1, mouse vascular endothelial growth …; assay: clones from the 159Q(8)L library; binding per FIG. 4
Method: as §1

[16] = target: T5, mouse vascular endothelial growth …; assay: SPR (BIAcore), target immobilized
Method: (§5) In vitro affinity measurements were made using surface plasmon resonance (SPR) (BIAcore) with both the human and mouse VEGF-receptor target proteins immobilized via amide chemistry on the BIAcore chip.
as §4

[17] = target: T6, human vascular endothelial growth …; assay: SPR (BIAcore), target immobilized
Method: as §5, §4

B1: E26 (designed binder)
chain: EVVAATPTSLLISWRHPHFPTRYYRITYGETGGNSPVQEFTVPLQPPTATISGLKPGVDYTITGYAVTVERNGRELMTPISINYRT
notes: Del 1-8 10Fn3 clone; Tags not included
Binding to 1 nM FLK, % [1]: 20% | HUVEC proliferation assay: decrease in proliferation [2]: ~40% | Kd [3]: 2.05 nM | Kd [4]: 1.66 nM | Binding to 1 nM KDR, % [5]: 27%

B2: E26 (designed binder)
chain: EVVAATPTSLLISWRHPHFPTRYYRITYGETGGNSPVQEFTVPLQPPTATISGLKPGVDYTITGYAVTVERNGRELMTPISINYRT
notes: Del 1-8 10Fn3 clone; Flag-tagged in vitro translated protein in the radioactive assay, His6-tagged E. coli protein in BIAcore and cell assays; tags left out
EC50 [6]: 2.6 nM | Inhibition of VEGF-induced proliferation, Ba/F3-Flk (IC50, nM) [7]: 5.3 nM | Inhibition of VEGF-induced proliferation, Ba/F3-KDR (IC50, nM) [8]: 3.2 nM | EC50 [9]: 1.3 nM | Kd [10]: 2 nM | Kd [11]: < 1.7 nM | Inhibition of VEGF-induced proliferation of HUVEC cells (IC50, nM) [12]: 14 nM | Kd [13]: 2.14 nM | koff [13]: 0.000477 s⁻¹ | kon [13]: 220000 M⁻¹ s⁻¹ | Kd [14]: 0.51 nM | koff [14]: 5.8e-05 s⁻¹ | kon [14]: 110000 M⁻¹ s⁻¹

B3: E29 (designed binder)
chain: EVVAATPTSLLISWRHPHFPTRYYRITYGETGGNSPVQEFTVPLQPPTATISGLKPGVDYTITGYAVTVERNGRVLMTPISINYRT
notes: as for B1
Binding to 1 nM FLK, % [1]: 44% | HUVEC proliferation assay: decrease in proliferation [2]: ~40% | Kd [3]: 0.91 nM | Kd [4]: 1.51 nM | Binding to 1 nM KDR, % [5]: 41%

B4: E19 (designed binder)
chain: EVVAATPTSLLISWRHPHFPTRYYRITYGETGGNSPVQEFTVPLQPPTATISGLKPGVDYTITGYAVTVERNGRHLMTPISINYRT
notes: as for B1
Binding to 1 nM FLK, % [1]: 40% | HUVEC proliferation assay: decrease in proliferation [2]: ~40% | Kd [3]: 0.66 nM | Kd [4]: 1.3 nM | Binding to 1 nM KDR, % [5]: 38%

B5: E18 (designed binder)
chain: EVVAATPTSLLISWRHPHFPTRYYRITYGETGGNSPVQEFTVPLQPPTATISGLKPGVDYTITGYAVTVERNGRELNTPISINYRT
HUVEC proliferation assay: decrease in proliferation [2]: ~40%

B6: E18 (designed binder)
chain: EVVAATPTSLLISWRHPHFPTRYYRITYGETGGNSPVQEFTVPLQPPTATISGLKPGVDYTITGYAVTVERNGRELNTPISINYRT
notes: as for B2
EC50 [6]: 4.2 nM | Inhibition of VEGF-induced proliferation, Ba/F3-Flk (IC50, nM) [7]: 2.4 nM | Inhibition of VEGF-induced proliferation, Ba/F3-KDR (IC50, nM) [8]: 5.4 nM | EC50 [9]: 0.9 nM | Kd [10]: < 0.5 nM | Kd [11]: < 1.2 nM | Inhibition of VEGF-induced proliferation of HUVEC cells (IC50, nM) [12]: 12.8 nM | Kd [13]: 0.33 nM | koff [13]: 0.000195 s⁻¹ | kon [13]: 600000 M⁻¹ s⁻¹ | Kd [14]: 0.46 nM | koff [14]: 0.000121 s⁻¹ | kon [14]: 260000 M⁻¹ s⁻¹

B7: M5FL (designed binder)
chain: VSDVPRDLEVVAATPTSLLISWRHPHFPTRYYRITYGETGGNSPVQEFTVPLQPPLATISGLKPGVDYTITGYAVTKERNGRELFTPISINYRT
notes: extension and tag left out
Inhibition of VEGF-induced proliferation, Ba/F3-Flk (IC50, nM) [7]: 5.1 nM | Inhibition of VEGF-induced proliferation, Ba/F3-KDR (IC50, nM) [8]: 3.9 nM | Inhibition of VEGF-induced proliferation of HUVEC cells (IC50, nM) [12]: 8.5 nM | Kd [13]: 2.1 nM | koff [13]: 0.000582 s⁻¹ | kon [13]: 280000 M⁻¹ s⁻¹ | Kd [14]: 0.89 nM | koff [14]: 9.2e-05 s⁻¹ | kon [14]: 100000 M⁻¹ s⁻¹

B8: M8 (designed binder)
chain: VSDVPRDLEVVAATPTSLLISWRHPHFPTHYYRITYGETGGNSPVQEFTVPLQPPAATISGLKPGVDYTITGYAVTKERSGRELFTPISINYRT
notes: 10Fn3 clone with WT N-terminus; Tags not included
binding result [15]: binds

B9: M5FL C100 (designed binder)
chain: MGVSDVPRDLEVVAATPTSLLISWRHPHFPTRYYRITYGETGGNSPVQEFTVPLQPPLATISGLKPGVDYTITVYAVTKERNGRELFTPISINYRTEIDKPCQHHHHHH
notes: unmodified M5FL with C-terminal extension, Cys100 and His tag; a significant percentage is produced with the initial methionine removed; also called C100-form of the M5FL protein
Kd [16]: 2.1 nM | koff [16]: 0.0003 s⁻¹ | kon [16]: 146000 M⁻¹ s⁻¹ | Kd [17]: 0.9 nM | koff [17]: 6.7e-05 s⁻¹ | kon [17]: 74000 M⁻¹ s⁻¹

B10: M5FL-PEG20 (designed binder)
chain: MGVSDVPRDLEVVAATPTSLLISWRHPHFPTRYYRITYGETGGNSPVQEFTVPLQPPLATISGLKPGVDYTITVYAVTKERNGRELFTPISINYRTEIDKPCQHHHHHH
modifications: linear 20 kD PEG coupled by maleimide chemistry to the cysteine residue at position 100
notes: also called M5FL 20K PEG
Kd [16]: 22.8 nM | koff [16]: 0.00055 s⁻¹ | kon [16]: 24000 M⁻¹ s⁻¹ | Kd [17]: 5.9 nM | koff [17]: 5.4e-05 s⁻¹ | kon [17]: 9000 M⁻¹ s⁻¹
